Patent US20250376535A1 (BEIJING STARMAB BIOMED TECHNOLOGY, published 2025)

T1: recombinant human OX40-Fc (human, UniProt P43489 29-214)
T1 construct: also called rh-OX40-Fc; human OX40 hFC (R & D systems)
T1 sequence: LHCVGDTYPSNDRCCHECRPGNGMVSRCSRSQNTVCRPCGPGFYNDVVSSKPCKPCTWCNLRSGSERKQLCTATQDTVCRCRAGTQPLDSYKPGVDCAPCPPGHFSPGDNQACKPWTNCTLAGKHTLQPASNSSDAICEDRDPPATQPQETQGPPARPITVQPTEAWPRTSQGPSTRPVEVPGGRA

B1: pgXX88-84 (VHH, not shown: small tags and cut ends)
VHH: EVQLVESGGRLVQAGDSLKLSCTASGRTFSDYVMGWFRQVPGEGRLMVAVITPAGDTTEYADAVKGRFSISKDSAKRTVNLQMNNLKVDDTAVYYCAAGPSWIGMQFGTAEYWGQGTQVTVSS
B2: pgXX88-81 (VHH, not shown: small tags and cut ends)
VHH: EVQLVESGGGLAQPGSSLRLSCTASGTVFSILSATWFRQAPGKAHEARELVAFISSDGVSMHADSVKGRFTISRDNAKSTVYLQMDNLQPEDTAAYYCKLSNSMMGMEYWGRGTQVTVSS
B3: pgXX88-19 (VHH, not shown: small tags and cut ends)
VHH: EVQLVESGGGLVQAGGSLRLSCVATGRTRSSTYIMAWFRQAPGKERDFVAAISFIGGSPVYTDSVKGRFTISRVIAENTVHLQMNDLTPEDTALYYCAATDSGPLGPSGPSKYEYWGQGTQVTVSS
B4: pgXX88-83 (VHH, not shown: small tags and cut ends)
VHH: EVQLVESGGGLVQTGDSLRLSCAALGGTPSTYAIGWFRQAAGKELQFVARITWNGDTWYADALPGRVAISRDNAKKTVYLQMNNLKPEDTAEYICAADVSEFRDIPNRDSRANYRYWGQGTQVTVSS
B5: pgXX88-16 (VHH, not shown: small tags and cut ends)
VHH: QVQLVESGGGLVQAGESLNLSCSASGSIRNNAVAWFRQGPGNQRLRVAAITNTGTTDYADSVQGRFSIARDNAENTVTLQMNSLKPEDTAIYYCKIYTLPVPISSHDDTWGQGTQVTVSS
B6: pgXX88-2 (VHH, not shown: small tags and cut ends)
VHH: EVQLVESGGGLVQPGGSLRLSCAASGFAFGDIPMMWVRQAPGKGREWVSSISADSATQSYADSVQDRFTISRDNAKNTLYLEMHILKPEDTAVYYCATTDRPPPGQGTQVTVSS
B7: pgXX88-60 (VHH, not shown: small tags and cut ends)
VHH: EVQLVESGGGLAQPGGSLRLSCAASGFTFSNYAMGWYRQAPGKEREFVAAIDWSTNALLYGDSVKGRFTISRDNAKNTVFLQMSGLKPEDTALYYCAADRAYHTVVLGPPEGMDYWGKGTQVTVSS
B8: pgXX88-5 (VHH, not shown: small tags and cut ends)
VHH: QVQLVESGGGLVQAGGSLRLSCAASGGTFSTYAMGWFRQAPGKEPQFVARITWSGYTLYTEPVQGRFAISRDNAKNTVYLQMNSLKPEDTAEYFCAADSSEFRDIPNRDSRANYRYWGQGTQVTVSS
B9: pgXX88-27 (VHH, not shown: small tags and cut ends)
VHH: EVQLVESGGGLVQPGGSVTLSCATSKDTFSRYHMGWFRQAAGKEREFVAAIANTGTTTDYADFVKGRFTISRDSAKNTVYLQMDSLKVEDTAMYYCVVGSQFMSYDYWGQGTQVTVSS
B10: pgEG-SX20 (VHH, not shown: small tags and cut ends)
VHH: QVQLVESGGGLVQAGGSLRLSCAGARSAFSIKPMTWYRQAPGKERELVAYFNSGGSTNYADSVKGRFTISRDNAKNTMYLQMNNLKPEDTAVYYCNAIPPLGSWGQGTQVTVSS
B11: pgEG-SX9 (VHH, not shown: small tags and cut ends)
VHH: QVQLVESGGGLVQAGGSLRLSCAASVSGSALSNMAWYRQRPGNQRELVAHITFDNFTNYADSVKGRFTISRDNVKNTVDLQMSSLKPEDTAVYYCNARHFFGDNYWGKGTLVTVSS
B12: pgEG12 (VHH, not shown: small tags and cut ends)
VHH: QVQLVESGGGLVQAGGSLSLSCTASRNIFSINVMSWYRQAPGKQREFVASITREDFPYYTDSVKGRFTVTRDIANNKVHLQMNSLKLEDTAVYYCNAYYRSDNYWGQGTQVTVSS
B13: pgEG1 (VHH, not shown: small tags and cut ends)
VHH: QVQLVESGGGLVQPGGSLRLSCAASGIIFEAEAMGWVRQAPGKQRESVAFIGSGGNTNVGWSVKGRFTISRDNAKNTLYLQMNSLRPEDTAVYYCNTHPLRSWGQGTQVTVS
B14: pgEG6 (VHH, not shown: small tags and cut ends)
VHH: QVQLVESGGGLVQPGGSLRLSCVASGIIFEAEAMGWYRQAPGKQRESVAFIGSGGNTNVGWSVKGRFTISRDNAKNTVYLQMNSLKPEDTAVYYCNTHPLRSWGQGTQVTVSS
B15: pgDD40-HZ-58 (VHH, not shown: small tags and cut ends)
VHH: QVQLVESGGGLVQPGESLTLSCVTSGFVFSNHWMYWDRQAPGKGLEWVADINLGGEMTYYSNSVKGRFTISRDNAKNTVSLRMDNLKVEDTAVYFCAANQQTPPYGLGSREYDYDYWGQGTQVTVSS

Target: T1, recombinant human OX40-Fc
Experiment: ELISA, OX40-Fc coated, VHH at 1.6 nM
Experimental: (§1) After four times washing with PBST, the plate was incubated with detecting antibody anti-his-HRP (1:4000 dilution) 100 μl per well for one hour with shaking at 60 rpm. The plate was developed with 100 μL of TMB per well in the dark and then stopped by 50 μL of stop solution per well. […] Data was analyzed using GraphPad Prisma 9.1.

Binder	OD450
B1	0.29
B2	0.743
B3	1.38
B4	0.147
B5	1.4
B6	1.46
B7	0.641
B8	0.065
B9	1.02

Target: T1, recombinant human OX40-Fc
Experiment: ELISA, OX40-Fc coated, VHH at 0.0128 nM
Experimental: as §1

Binder	OD450
B1	0.057
B2	0.06
B3	0.126
B4	0.05
B5	0.169
B6	0.077
B7	0.057
B8	0.057
B9	0.155

Target: T2, EGFR Fc (human, UniProt P00533 25-645)
T2 construct: also called EGFR-hFc; recombinant human EGFR-Fc
Experiment: ELISA, EGFR Fc coated, VHH at 500 nM
Experimental: (§2) After four rounds of washing with PBST, the plate was incubated with detecting antibody anti-his-HRP (1:4000 dilution) 100 μl per well for one hour with shaking at 60 rpm. The plate was developed with 100 μL of TMB per well in the dark and then stopped by 50 μL of stop solution per well. […] Data was analyzed using GraphPad Prisma 9.1.

Binder	OD450
B10	2.53
B11	2.2

Target: T2, EGFR Fc
Experiment: ELISA, EGFR Fc coated, VHH at 50 nM
Experimental: as §2

Binder	OD450
B10	2.67
B11	2.28

Target: T2, EGFR Fc
Experiment: ELISA, EGFR Fc coated
Experimental: as §2

Binder	EC50
B10	0.025 nM
B11	0.0278 nM

Target: T1, recombinant human OX40-Fc
Experiment: ELISA, OX40-Fc coated, VHH at 8 nM
Experimental: as §1

Binder	OD450
B1	0.31
B2	0.772
B3	1.54
B4	0.183
B5	1.52
B6	1.63
B7	0.668
B8	0.103
B9	1.34

Target: T2, EGFR Fc
Experiment: ELISA, EGFR Fc coated, VHH at 2 nM
Experimental: as §2

Binder	OD450
B10	2.61
B11	2.64

Target: T2, EGFR Fc
Experiment: ELISA, EGFR Fc coated, VHH at 0.08 nM
Experimental: as §2

Binder	OD450
B10	1.95
B11	1.84

Target: T1, recombinant human OX40-Fc
Experiment: ELISA, OX40-Fc coated, VHH at 200 nM
Experimental: as §1

Binder	OD450
B1	0.296
B2	0.666
B3	1.62
B4	0.243
B5	1.61
B6	1.66
B7	0.61
B8	0.543
B9	1.3

Target: T1, recombinant human OX40-Fc
Experiment: ELISA, OX40-Fc coated, VHH at 40 nM
Experimental: as §1

Binder	OD450
B1	0.324
B2	0.75
B3	1.61
B4	0.252
B5	1.48
B6	1.63
B7	0.718
B8	0.242
B9	1.35

Target: T3, EGFR (recombinant human, BLI antigen) (human, UniProt P00533 25-645)
T3 construct: also called rh-EGFR; human EGFR
Experiment: BLI (Octet) as in Example 1

Binder	Kd	koff	kon
B12	12.5 nM	0.00251 s⁻¹	201000 M⁻¹ s⁻¹
B13	15.6 nM	0.00243 s⁻¹	156000 M⁻¹ s⁻¹
B14	27.9 nM	0.0136 s⁻¹	489000 M⁻¹ s⁻¹

Target: T2, EGFR Fc
Experiment: ELISA, EGFR Fc coated, VHH at 0.016 nM
Experimental: as §2

Binder	OD450
B10	1.13
B11	0.903

Target: T4, Human CD40 antigen (recombinant, BLI) (human, UniProt P25942 21-193)
T4 construct: also called rh-CD40
T4 sequence (P25942 21-193 limits assumed): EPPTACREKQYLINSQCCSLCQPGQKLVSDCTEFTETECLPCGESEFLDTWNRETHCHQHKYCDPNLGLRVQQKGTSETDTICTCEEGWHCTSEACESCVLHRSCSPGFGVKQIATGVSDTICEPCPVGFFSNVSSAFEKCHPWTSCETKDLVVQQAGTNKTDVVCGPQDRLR
Experiment: BLI, VHH-His on anti-His tips, human CD40 in solution;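 also: kinetics measured at 30 °C in PBS pH 7.2, association tracked for 200 s, then dissociation followed in PBS lacking CD40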
Experimental: Bio-Layer Interferometry (BLI) kinetic binding analysis. […] Affinity measurements were performed with Gator equipped with Anti-Penta-His capture (HIS1K) biosensor tips. The assay was performed at 30° C. in 1×PBS buffer (Gibco®, PBS pH7.2). Samples were agitated at 1000 rpm. Prior to analysis, sensors were humidified for 15 min. […] Sensor data was collected throughout the experiments, processed, and analyzed using the Gator data analysis software.
Briefly, purified anti-CD40 VHH was tested for its binding capacity with HIS1K sensor tips. Tips were loaded using 20 μg/ml of anti-CD40 VHH. Loading proceeded for 300 sec resulting in capture levels of between 1.8 and 2 nm. […] Association was initiated and monitored for 200 sec, after which tips were transferred to 1×PBS buffer without CD40 protein in order to monitor dissociation.

Binder	Kd	koff	kon
B15	0.0406 nM	3.32e-05 s⁻¹	818000 M⁻¹ s⁻¹

Target: T1, recombinant human OX40-Fc
Experiment: BLI, VHH-His on anti-His tips, OX40 hFc in solution;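 also: kinetics recorded at 30 °C in PBS pH 7.2, with 200 s of association followed by dissociation monitored in PBS lacking the OX40 protein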
Experimental: Bio-Layer Interferometry (BLI) kinetic binding analysis. […] Affinity measurements were performed with Gator equipped with Anti-Penta-His capture (HIS1K) biosensor tips. The assay was performed at 30° C. in 1×PBS buffer (Gibco®, PBS pH7.2). Samples were agitated at 1000 rpm. Prior to analysis, sensors were humidified for 15 min. Purified anti-OX40 VHH was tested for its binding capacity with HIS1K sensor tips. Tips were loaded using 20 μg/ml of anti-OX40 VHH. Loading proceeded for 300 s resulting in capture levels of between 1.8 and 2 nm. […] Association was initiated and monitored for 200 sec, after which tips were transferred to 1×PBS buffer without Factor protein (Gibco, PBS pH 7.2), in order to monitor dissociation. Sensor data was collected throughout the experiments, processed, and analyzed using the Gator data analysis software.

Binder	Kd	koff	kon
B1	< 0.001 nM	1e-06 s⁻¹	494000 M⁻¹ s⁻¹
B2	< 0.001 nM	1e-06 s⁻¹	549000 M⁻¹ s⁻¹
B4	0.0526 nM	2.42e-05 s⁻¹	460000 M⁻¹ s⁻¹
B6	0.485 nM	0.00023 s⁻¹	474000 M⁻¹ s⁻¹
B7	< 0.001 nM	1e-06 s⁻¹	464000 M⁻¹ s⁻¹

Target: T2, EGFR Fc
Experiment: ELISA, EGFR Fc coated, VHH at 10 nM
Experimental: as §2

Binder	OD450
B10	2.6
B11	2.4

Target: T1, recombinant human OX40-Fc
Experiment: ELISA, OX40-Fc coated, VHH at 0.32 nM
Experimental: as §1

Binder	OD450
B1	0.175
B2	0.617
B3	0.717
B4	0.072
B5	0.992
B6	0.719
B7	0.596
B8	0.058
B9	0.334

Target: T1, recombinant human OX40-Fc
Experiment: ELISA, OX40-Fc coated, VHH at 0.064 nM
Experimental: as §1

Binder	OD450
B1	0.085
B2	0.262
B3	0.282
B4	0.063
B5	0.447
B6	0.183
B7	0.284
B8	0.057
B9	0.115

Target: T2, EGFR Fc
Experiment: ELISA, EGFR Fc coated, VHH at 0.0032 nM
Experimental: as §2

Binder	OD450
B10	0.358
B11	0.237

Target: T2, EGFR Fc
Experiment: ELISA, EGFR Fc coated, VHH at 0.4 nM
Experimental: as §2

Binder	OD450
B10	2.67
B11	2.4

Target: T1, recombinant human OX40-Fc
Experiment: ELISA, OX40-Fc coated, VHH at 1000 nM
Experimental: as §1

Binder	OD450
B1	0.34
B2	0.772
B3	1.69
B4	0.504
B5	1.61
B6	1.67
B7	0.713
B8	1.09
B9	1.39
